For two molecules, OD, binding result and 灵敏度 results are on record in patent publication CN117466995A (YIDAO BIOTECHNOLOGY SUZHOU CO LTD, dated 2024).

The target in test [1] is T1, HPV45型衣壳蛋白L1病毒样颗粒(VLP)抗原 (HPV 45型) (UniProt P36741).
T1 sequence: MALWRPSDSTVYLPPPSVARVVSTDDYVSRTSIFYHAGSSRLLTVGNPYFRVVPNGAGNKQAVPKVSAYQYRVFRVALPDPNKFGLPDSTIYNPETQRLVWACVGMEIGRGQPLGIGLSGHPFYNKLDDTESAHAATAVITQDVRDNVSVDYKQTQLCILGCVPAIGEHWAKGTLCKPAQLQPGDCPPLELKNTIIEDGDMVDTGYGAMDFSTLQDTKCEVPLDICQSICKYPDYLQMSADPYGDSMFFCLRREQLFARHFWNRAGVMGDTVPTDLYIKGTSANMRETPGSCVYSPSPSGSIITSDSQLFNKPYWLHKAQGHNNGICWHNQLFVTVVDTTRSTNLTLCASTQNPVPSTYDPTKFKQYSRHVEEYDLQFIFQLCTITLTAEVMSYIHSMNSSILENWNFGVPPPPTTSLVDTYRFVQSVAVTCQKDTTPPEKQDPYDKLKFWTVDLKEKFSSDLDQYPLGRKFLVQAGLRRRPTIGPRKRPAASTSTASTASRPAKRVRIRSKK
The test can be described thus: sandwich ELISA, rabbit pAb R163 capture 1:500, mAb 1:20000; antigen 13.3 ug/ml, 2.5-fold series, step 1. In general terms: In an ELISA, binding on a coated surface is turned into a signal by an enzyme label.

Test [2] concerns the target T1, HPV45型衣壳蛋白L1病毒样颗粒(VLP)抗原 (HPV 45型). The test can be described thus: sandwich ELISA, rabbit pAb R163 capture 1:500, mAb 1:20000; column 12, antigen amount not stated (only 11 dilutions described).
The target is the same in test [3]. The test can be described thus: sandwich ELISA, rabbit pAb R163 capture 1:500, mAb 1:20000; antigen 13.3 ug/ml, 2.5-fold series, step 10.
The next test deals with T2, HPV 33 VLP抗原 (HPV 33, UniProt P06416 1-499).
T2 sequence: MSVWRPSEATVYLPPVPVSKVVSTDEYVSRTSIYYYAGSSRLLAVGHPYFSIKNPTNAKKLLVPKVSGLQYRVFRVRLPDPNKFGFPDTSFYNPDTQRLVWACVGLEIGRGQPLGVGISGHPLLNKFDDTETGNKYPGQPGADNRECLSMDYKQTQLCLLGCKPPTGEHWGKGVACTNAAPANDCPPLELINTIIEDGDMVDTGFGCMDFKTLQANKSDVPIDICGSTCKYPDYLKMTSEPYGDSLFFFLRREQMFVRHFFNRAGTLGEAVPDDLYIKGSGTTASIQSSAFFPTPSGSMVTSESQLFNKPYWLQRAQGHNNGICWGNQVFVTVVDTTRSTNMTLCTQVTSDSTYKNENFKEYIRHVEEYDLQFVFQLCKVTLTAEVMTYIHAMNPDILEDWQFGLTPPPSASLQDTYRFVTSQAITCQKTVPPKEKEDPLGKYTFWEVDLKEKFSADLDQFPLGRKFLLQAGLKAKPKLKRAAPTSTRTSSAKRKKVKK
The test can be described thus: direct ELISA on coated VLP antigens.

A further test addresses T3, HPV 52 VLP抗原 (HPV 52, UniProt Q05138 27-529).
T3 sequence: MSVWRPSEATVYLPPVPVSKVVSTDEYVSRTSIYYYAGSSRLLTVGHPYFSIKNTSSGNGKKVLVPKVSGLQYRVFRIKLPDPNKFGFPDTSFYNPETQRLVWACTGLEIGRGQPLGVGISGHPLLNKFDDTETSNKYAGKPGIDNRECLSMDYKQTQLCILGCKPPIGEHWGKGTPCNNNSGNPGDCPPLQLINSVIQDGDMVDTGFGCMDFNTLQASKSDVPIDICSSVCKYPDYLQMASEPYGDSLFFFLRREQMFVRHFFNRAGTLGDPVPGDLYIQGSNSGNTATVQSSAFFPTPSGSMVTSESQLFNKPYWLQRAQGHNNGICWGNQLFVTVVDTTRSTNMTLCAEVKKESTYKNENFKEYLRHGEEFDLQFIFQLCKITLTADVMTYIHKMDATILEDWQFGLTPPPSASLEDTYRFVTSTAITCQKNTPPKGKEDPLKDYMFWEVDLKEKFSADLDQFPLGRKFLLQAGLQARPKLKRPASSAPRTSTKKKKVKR
The test can be described thus: direct ELISA on coated VLP antigens.

For test [4], the target named is T1, HPV45型衣壳蛋白L1病毒样颗粒(VLP)抗原 (HPV 45型). The test can be described thus: sandwich ELISA, rabbit pAb R163 capture 1:500, mAb 1:20000; antigen 13.3 ug/ml, 2.5-fold series, step 7.
Test [5] shares this target. The test can be described thus: sandwich ELISA, rabbit pAb R163 capture 1:500, mAb 1:20000; antigen 13.3 ug/ml, 2.5-fold series, step 11.
Test [6] has the same target. The test can be described thus: direct ELISA on coated HPV45 VLP, purified antibody titrated; positive if OD > 2.1 x NC.
Test [7] shares this target. The test can be described thus: sandwich ELISA, rabbit pAb R163 capture 1:500, mAb 1:20000; antigen 13.3 ug/ml, 2.5-fold series, step 2.
Test [8] has the same target. The test can be described thus: sandwich ELISA, rabbit pAb R163 capture 1:500, mAb 1:20000; antigen 13.3 ug/ml, 2.5-fold series, step 5.
Test [9] shares this target. The test can be described thus: sandwich ELISA, rabbit pAb R163 capture 1:500, mAb 1:20000; antigen 13.3 ug/ml, 2.5-fold series, step 6.

Where “and” joins values, the source holds several entries; their conditions need not be identical. Identical values can stand only once.

B1: 杂交瘤细胞株7A5(CGMCC NO:45706)分泌的鼠源单克隆抗体 (antibody, V domains shown)
VH: QPGAELVKPGASVKLSCKASGYTFTSYWMHWVKQRPGQGLEWIGEINPSNGHTNYNEKFKSKATLTVDKSSSTAYMQLSSLTSEDSAVYYCAPCYGSSYDYYAMDYWGQGTSVTVSS
VL: DIVLTQSPASLAVSLGQRATISCRASQSVSTSSYSYMHWYQQKPGQPPKLLIKYASNLESGVPARFSGSGSGTDFTLNIHPVEEEDTATYYCQHSWEIPYTFGGGTKLEIK
notes: also called 鼠单抗7A5; 抗体7A5
For B1, the OD is 3.12 OD in [1]; 0.067 OD and 0.064 OD in test [2]; 0.068 OD and 0.072 OD in test [3]; 0.379 OD and 0.358 OD in [4]; 0.066 OD and 0.056 OD in test [5]; 3.05 OD and 3 OD in [7]. The OD was 1.54 OD and 1.56 OD in test [8]; 0.614 OD and 0.773 OD in test [9]. Further, the binding result in the test with HPV 33 VLP抗原 and with HPV 52 VLP抗原 was “no binding” each time. In test [6], this molecule registered a 灵敏度 of 0.0005 µg/mL.

B2: 杂交瘤细胞株11G1(CGMCC NO:45707)分泌的鼠源单克隆抗体 (antibody, V domains shown)
VH: QVQLQQPGAELVKPGASVKLSCKASGYTFTSYWMHWVKRRPGQGLEWIGEINPSNGLTNYNEKFKSKGTLTVDKSSSAAFMHLSSLTSEDSAVYYCARFHGSDLYAMDYWGQGTSVTVSS
VL: DIVLTQSPASLAVSLGQRATISCRASQSVSTSSYSYMHWYQQKPGQPPKLLIKYASNLESGVPARFSGSGSGTDFTLNIHPVEEEDTATYYCQHSWEIPYTFGGGTKLEIK
notes: also called 鼠单抗11G1; 抗体11G1
For the molecule B2, the OD is 3.1 OD and 3.01 OD in [1]; 0.045 OD and 0.05 OD in test [2]; 0.062 OD and 0.051 OD in test [3]; 0.218 OD and 0.206 OD in [4]; 0.05 OD and 0.046 OD in [5]; 3.03 OD and 3.09 OD in [7]. In addition, the OD in test [8] is 0.922 OD and 1.02 OD; in test [9], 0.364 OD and 0.447 OD. Further, the binding result with HPV 33 VLP抗原 and with HPV 52 VLP抗原 was “no binding” each time. Besides, the 灵敏度 in test [6] worked out at 0.0005 µg/mL.
